# Measured values taken from patent US20250277030A1 (Zymeworks, published 2025).
# Numbering of substitutions follows the chain as printed.
# T1: human sodium-dependent phosphate transporter 2B (NaPi2b) (human, UniProt O95436 1-690)
# T1 construct: UniProt ID is given as 095436 [sic]; also called hNaPi2b; Hu NaPi2b
# T1 sequence: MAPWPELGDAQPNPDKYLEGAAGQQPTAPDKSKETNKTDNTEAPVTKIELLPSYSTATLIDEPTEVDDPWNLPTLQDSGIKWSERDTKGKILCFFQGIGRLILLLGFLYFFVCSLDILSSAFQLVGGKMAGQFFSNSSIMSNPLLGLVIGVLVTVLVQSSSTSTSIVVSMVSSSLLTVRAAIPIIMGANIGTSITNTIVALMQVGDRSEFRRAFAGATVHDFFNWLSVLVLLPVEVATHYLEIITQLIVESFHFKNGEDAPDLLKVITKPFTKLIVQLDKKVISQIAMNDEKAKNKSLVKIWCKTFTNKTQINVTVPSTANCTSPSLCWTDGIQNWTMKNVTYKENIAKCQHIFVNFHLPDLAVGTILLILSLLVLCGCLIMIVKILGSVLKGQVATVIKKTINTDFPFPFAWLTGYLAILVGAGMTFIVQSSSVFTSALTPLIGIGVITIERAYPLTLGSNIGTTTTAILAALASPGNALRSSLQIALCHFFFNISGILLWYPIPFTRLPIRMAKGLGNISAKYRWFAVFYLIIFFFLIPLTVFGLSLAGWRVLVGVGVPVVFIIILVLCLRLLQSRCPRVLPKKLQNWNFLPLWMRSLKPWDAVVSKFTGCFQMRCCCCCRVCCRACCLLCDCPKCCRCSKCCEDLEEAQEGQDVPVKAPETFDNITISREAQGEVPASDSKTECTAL
# B1: v23855, parental mouse-human chimeric anti-NaPi2b IgG1/kappa antibody (antibody, V domains shown)
# VH: QAYLQQSGAELVRPGASVKMSCKASGFTFTSYNVHWVKQTPRQGLEWIAAISPGNGDLSYNQRFKDKATLTVDRSSSTAYMQLSGLTSEDSAVYFCARGRTGMGAVDYWGQGTSVTVSS
# VL: DVQMTQTASSLSASLGDRVTISCRASQDVYSYLNWYQQKPHGTVKLLIYYTSRLQSGVPSRFTGSGSGTDYSLTISNLEPEDIATYYCQQYNIFPWTFGGGTKLEIKR
# notes: Full-size antibody: mouse VH/VL appended to human IGHG1*01 CH1-hinge-CH2-CH3 (ends at G446) and IGKC*01; also called parental chimeric
# B2: v29814, monovalent format of parental chimeric variant 23855 (antibody, V domains shown)
# VH: B1 VH
# VL: DVQMTQTASSLSASLGDRVTISCRASQDVYSYLNWYQQKPHGTVKLLIYYTSRLQSGVPSRFTGSGSGTDYSLTISNLEPEDIATYYCQQYNIFPWTFGGGTKLEIK
# notes: Only said to be the monovalent format of v23855; it is captured and detected with anti-human IgG; also called v29814 (parental chimeric)
# B3: v18992-DL2, MX35 conjugated to MT-VC-Compound 1 (DAR 3) (antibody, human IgG1, kappa)
# heavy 1: GQVQLVQSGAEVVKPGASVKMSCKASGYTFTGYNIHWVKQAPGQGLEWIGAIYPGNGDTSYKQKFRGRATLTADTSTSTVYMELSSLRSEDSAVYYCARGETARATFAYWGQGTLVTVSSASTKGPSVFPLAPSSKSTSGGTAALGCLVKDYFPEPVTVSWNSGALTSGVHTFPAVLQSSGLYSLSSVVTVPSSSLGTQTYICNVNHKPSNTKVDKKVEPKSCDKTHTCPPCPAPELLGGPSVFLFPPKPKDTLMISRTPEVTCVVVDVSHEDPEVKFNWYVDGVEVHNAKTKPREEQYNSTYRVVSVLTVLHQDWLNGKEYKCKVSNKALPAPIEKTISKAKGQPREPQVYVYPPSRDELTKNQVSLTCLVKGFYPSDIAVEWESNGQPENNYKTTPPVLDSDGSFALVSKLTVDKSRWQQGNVFSCSVMHEALHNHYTQKSLSLSPG
# heavy 2: not shown
# light: GDIQMTQSPSSLSASVGDRVTITCSASQDIGNFLNWYQQKPGKTVKVLIYYTSSLYSGVPSRFSGSGSGTDYTLTISSLQPEDFATYYCQQYSKLPLTFGQGTKLELKRTVAAPSVFIFPPSDEQLKSGTASVVCLLNNFYPREAKVQWKVDNALQSGNSQESVTEQDSKDSTYSLSSTLTLSKADYEKHKVYACEVTHQGLSSPVTKSFNRGEC
# modifications: MT-VC-Compound 1 (DL2) on cysteines freed by reduction; positions not given; MT-VC-Compound 1 (DL2) on cysteines freed by reduction; positions not given; DAR 3 for the whole antibody
# notes: also called MX35 Compound 1 ADC; MX35-DL2 ADC
# B4: v29452 humanized anti-NaPi2b antibody (H1L3) (antibody, human IgG1, kappa, V domains shown)
# VH: QVQLVQSGAEVKKPGASVKVSCKASGFTFTSYNVHWVRQAPGQGLEWMGAISPGNGDLSYAQKFQGRVTMTRDTSTSTVYMELSSLRSEDTAVYYCARGRTGMGAVDYWGQGTLVTVSS
# VL: DVQMTQSPSSLSASVGDRVTITCRASQDVYSYLNWYQQKPGKAVKLLIYYTSRLQSGVPSRFSGSGSGTDYTLTISSLQPEDIATYYCQQYNIFPWTFGQGTKLEIKR
# B5: v36123, monovalent format of humanized antibody variant 29452 (antibody, V domains shown)
# VH: B4 VH
# VL: DVQMTQSPSSLSASVGDRVTITCRASQDVYSYLNWYQQKPGKAVKLLIYYTSRLQSGVPSRFSGSGSGTDYTLTISSLQPEDIATYYCQQYNIFPWTFGQGTKLEIK
# notes: Only said to be the monovalent format of v29452; also called v36123 (VH1/VL3)
# B6: v36124, monovalent format of humanized antibody variant 29456 (antibody, V domains shown)
# VH: B4 VH
# VL: B5 VL with I83F
# notes: Only said to be the monovalent format of v29456; also called v36124 (VH1/VL2)
# B7: v29456-DL2, v29456 conjugated to MT-VC-Compound 1 (DAR 4) (antibody, human IgG1, kappa)
# heavy: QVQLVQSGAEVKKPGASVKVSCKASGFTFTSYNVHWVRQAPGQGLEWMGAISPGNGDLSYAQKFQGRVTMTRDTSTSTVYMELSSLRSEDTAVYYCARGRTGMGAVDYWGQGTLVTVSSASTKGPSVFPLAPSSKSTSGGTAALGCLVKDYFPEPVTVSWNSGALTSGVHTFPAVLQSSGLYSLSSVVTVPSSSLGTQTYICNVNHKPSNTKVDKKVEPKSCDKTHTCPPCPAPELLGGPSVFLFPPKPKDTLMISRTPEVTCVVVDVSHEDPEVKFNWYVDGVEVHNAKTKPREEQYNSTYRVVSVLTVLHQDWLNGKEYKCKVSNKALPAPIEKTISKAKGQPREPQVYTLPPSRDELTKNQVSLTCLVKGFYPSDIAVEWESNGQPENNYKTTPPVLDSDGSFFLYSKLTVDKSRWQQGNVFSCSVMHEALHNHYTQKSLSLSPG
# light: DVQMTQSPSSLSASVGDRVTITCRASQDVYSYLNWYQQKPGKAVKLLIYYTSRLQSGVPSRFSGSGSGTDYTLTISSLQPEDFATYYCQQYNIFPWTFGQGTKLEIKRTVAAPSVFIFPPSDEQLKSGTASVVCLLNNFYPREAKVQWKVDNALQSGNSQESVTEQDSKDSTYSLSSTLTLSKADYEKHKVYACEVTHQGLSSPVTKSFNRGEC
# modifications: MT-VC-Compound 1 (DL2) on cysteines freed by reduction; positions not given; MT-VC-Compound 1 (DL2) on cysteines freed by reduction; positions not given; DAR 4 for the whole antibody
# notes: also called v29456-MT-VC-Compound 1
# B8: v29456-DL1, v29456 conjugated to MC-GGFG-AM-DXd1 (DAR 8) (antibody, human IgG1, kappa)
# heavy: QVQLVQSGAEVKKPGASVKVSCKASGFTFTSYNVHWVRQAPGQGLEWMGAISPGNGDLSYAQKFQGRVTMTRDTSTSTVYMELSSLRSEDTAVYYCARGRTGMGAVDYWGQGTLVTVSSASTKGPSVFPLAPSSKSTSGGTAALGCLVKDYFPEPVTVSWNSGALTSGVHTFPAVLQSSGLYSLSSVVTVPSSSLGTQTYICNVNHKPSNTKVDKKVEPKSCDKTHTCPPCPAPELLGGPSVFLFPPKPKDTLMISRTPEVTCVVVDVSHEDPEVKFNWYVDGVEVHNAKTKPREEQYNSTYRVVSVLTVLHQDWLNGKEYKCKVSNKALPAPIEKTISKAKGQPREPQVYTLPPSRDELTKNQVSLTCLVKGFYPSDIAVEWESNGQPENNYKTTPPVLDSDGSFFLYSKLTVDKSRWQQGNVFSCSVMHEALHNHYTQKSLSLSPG
# light: B7 light
# modifications: MC-GGFG-AM-DXd1 (DL1) on cysteines freed by reduction; positions not given; MC-GGFG-AM-DXd1 (DL1) on cysteines freed by reduction; positions not given; DAR 8 for the whole antibody
# notes: also called v29456-MC-GGFG-AM-DXd1
# How the values were obtained:
# [1] = biological target: T1, human sodium-dependent phosphate …; assay: flow cytometry, IGROV-1 cells (endogenous NaPi2b), 24 h at 4 °C
# Procedure: (§1) IGROV-1 cells express endogenous NaPi2b at a high level.
# (§2) Briefly, cells were seeded at 50,000 cells/well in conical-bottom 96-well plates and treated with test antibody for 24 hours at 4° C. to prevent internalization. […] Following incubation, cells were washed and stained with anti-Human IgG Fc AF647 conjugate (Jackson Immuno Research Labs, West Grove, PA; Cat. No. 109-605-098) at 4° C. for 30 min. Following incubation and washing, fluorescence was detected by flow cytometry on a BD LSRFortessa™ Cell Analyzer (BD Biosciences, Franklin Lake, NJ) with 1,000 minimum events collected per well. The AF647/APC-A GeoMean (fluorescence signal geometric mean, proportional to anti-Human AF647 binding) was calculated for the live cell population using FlowJo™ Version 10.8.1 (BD Biosciences, Franklin Lake, NJ) and plotted for each test antibody using GraphPad Prism Version 9 (GraphPad Software, San Diego, CA).
# [2] = biological target: T1, human sodium-dependent phosphate …; assay: flow cytometry, IGROV-1 cells (endogenous NaPi2b), 24 h at 4 °C; apparent Kd
# Procedure: as §1, §2
# [3] = biological target: T1, human sodium-dependent phosphate …; assay: flow cytometry on IGROV-1 cells (endogenous NaPi2b), 24 h at 4 C, anti-human IgG Fc AF647 detection
# Procedure: as §1, §2
# [4] = biological target: T1, human sodium-dependent phosphate …; assay: KinExA, IGROV-1 cells (endogenous NaPi2b) as titrant, monovalent antibody constant at 50 and 500 pM, N-curve analysis
# Procedure: (§3) The cell-binding assay was set up using the antibody constructs or variants as constant binding partner at two different concentrations of 50 pM and 500 pM. For the titration curve with antibody variants fixed at 50 pM, at least 10 million IGROV-1 cells were used as titrant. For the titration curve with antibody variants fixed at 500 pM, at least 5 million cells were used as titrant. The antibody variants and cells were mixed in PBS pH 7.4, 1 mg/mL BSA, 0.2% NaN₃ and incubated at 4° C. for 7 days with gentle rotation until equilibrium was reached. After incubation, the mixture of antibody variants and cells was centrifuged to separate the cells from the unbound free antibody variants. The free antibody variants were loaded onto the KinExA 3200 (Sapidyne, Boise, Idaho) with biotinylated—anti-human IgG PMMA as solid phase and 0.5 μg/mL of Alexa 647 goat anti-human IgG (Jackson ImmunoResearch, West Grove, PA) as detection antibody.
# (§4) N-curve analysis was used to calculate the affinity and receptor expression level with the concentrations of antibody variant as reference point.
# [5] = biological target: T1, human sodium-dependent phosphate …; assay: cell-based or functional assay
# [6] = biological target: T2, KLH (Sigma-Aldrich, H8283); assay: non-specific binding ELISA, KLH coated at 5 µg/mL, antibody at 100 nM
# T2 construct: also called keyhole limpet hemocyanin
# Procedure: NS-ELISA was carried out in Corning®96-well EIA/RIA Easy Wash™ Clear Flat Bottom Polystyrene High Bind Microplate coated overnight at 4° C. with 50 μL of Heparin (Sigma, H3149) diluted with 50 mM sodium carbonate pH 9.6 to a final concentration of 250 μg/mL. The plate was incubated for 2 days at room temperature, wells that were coated with heparin were not covered to allow air dry. […] 50 μL each of insulin, KLH, dsDNA and ssDNA were added to a 96 well plate, followed by the incubation at 37° C. for 2 h. The coating materials were removed, and the plate was blocked with 200 μL of Gibco™ PBS pH7.4, 0.1% Tween®20, and incubated for 1 h at room temperature with shaking at 200 rpm. The plate was washed 3 times with Gibco™ PBS pH7.4, 0.1% Tween 20. […] Reactions were stopped after approximately 10 minutes by adding 100 μL of 1 M HCl to each well, and absorbance was read at 450 nm. Binding scores were calculated as the ratio of the ELISA signal of the antibody (antibody-treated) to the signal of a well containing buffer instead of the primary antibody (untreated). The cutoffs considered for each binding molecule (ssDNA, KLH, insulin, dsDNA and heparin) were internally calculated, based on the average of Zymeworks Inc. produced antibodies and antibodies benchmarks published in the literature.
# [7] = biological target: T1, human sodium-dependent phosphate …; assay: KinExA, IGROV-1 cells, monovalent format
# Procedure: The binding affinity of anti-NaPi2b antibody constructs was assessed by Kinexa in the endogenous NaPi2b-expressing cell line, IGROV-1.
# as §3, §4
# [8] = biological target: T1, human sodium-dependent phosphate …; assay: flow cytometry, HCC-78 cells (endogenous NaPi2b)
# Procedure: (§5) Briefly, HEK293-6e cells were transfected for ˜24 hours to transiently express human NaPi2b, cynomolgus or mouse NaPi2b, at 1 μg of DNA per 1 million cells. Following transfection, 50,000 cells per well were seeded in V-bottom 96-well plates and incubated with 200 nM of primary antibody for 18-24 hours at 4° C. to prevent internalization. Post-incubation, cells were washed and stained with anti-Human IgG Fc AF647 conjugate (Jackson Immuno Research Labs, West Grove, PA, Cat. No. 109-605-098, Lot. No. 124868) at 4° C. for 1 hour. Following staining and washing, fluorescence was detected by flow cytometry on BD LSRFortessa™ Cell Analyzer (BD Biosciences, Franklin Lake, NJ) with 10,000 minimum events collected per well. The AF647/APC-A GeoMean (fluorescence signal geometric mean, proportional to anti-Human AF647 binding) was calculated for the live singlet cell population for each primary antibody using FlowJo™ v8 software (BD Biosciences, Franklin Lake, NJ). The Bmax and Kd of each primary antibody were calculated using GraphPad Prism Version 9 (GraphPad Software, San Diego, CA)
# (§6) The ability of ADCs to bind to cells expressing NaPi2b was assessed. […] Binding to endogenous high NaPi2b-expressing cell lines IGROV-1 and HCC-78 was assessed by flow cytometry according to methods described in Example 5.
# [9] = biological target: T1, human sodium-dependent phosphate …; assay: flow cytometry, IGROV-1 cells (endogenous NaPi2b)
# Procedure: as §5, §6
# [10] = biological target: T1, human sodium-dependent phosphate …; assay: flow cytometry, HCC-78 cells (endogenous NaPi2b); apparent Kd
# Procedure: as §5, §6
# [11] = biological target: T1, human sodium-dependent phosphate …; assay: flow cytometry, IGROV-1 cells (endogenous NaPi2b); apparent Kd
# Procedure: as §5, §6
# [12] = biological target: T1, human sodium-dependent phosphate …; assay: flow cytometry on HCC-78 cells (endogenous NaPi2b), 4 C, anti-human IgG Fc AF647 detection
# Procedure: as §5, §6
# [13] = biological target: T1, human sodium-dependent phosphate …; assay: flow cytometry on IGROV-1 cells (endogenous NaPi2b), 4 C, anti-human IgG Fc AF647 detection
# Procedure: as §5, §6
binder,measurement,setting,value
B1,Bmax (MFI),[1],43700 MFI
same,Kd,[2],0.84 nM
same,EC50 (read off the curve),[3],~0.8 nM
B2,Kd,[4],0.15 nM
B3,"In vitro cytotoxicity EC50 (nM), HCC-78",[5],0.13 nM
same,"In vitro cytotoxicity EC50 (nM), IGROV-1",[5],0.11 nM
same,"In vitro cytotoxicity EC50 (nM), OVCAR-3",[5],0.02 nM
same,Bmax (MFI),[1],41200 MFI
same,Kd,[2],1.22 nM
same,EC50 (read off the curve),[3],~1 nM
B4,Bmax (MFI),[1],47800 MFI
same,NS-ELISA binding score (ratio of signal between antibody-treated and untreated),[6],1.34 ratio
same,Kd,[2],1.6 nM
B5,fold lower binding affinity than chimeric parental antibody construct (v29814),[7],~2 fold
same,Kd,[4],0.297 nM
B6,fold lower binding affinity than chimeric parental antibody construct (v29814),[7],~2 fold
same,Kd,[4],0.283 nM
B7,"In vitro cytotoxicity EC50 (nM), HCC-78",[5],0.06 nM
same,"In vitro cytotoxicity EC50 (nM), IGROV-1",[5],0.08 nM
same,"In vitro cytotoxicity EC50 (nM), OVCAR-3",[5],0.01 nM
same,Bmax,[8],20400
same,Bmax (MFI),[9],81400 MFI
same,Kd,[10],2.32 nM
same,Kd,[11],0.77 nM
same,EC50 (read off the curve),[12],~2 nM
B8,"In vitro cytotoxicity EC50 (nM), HCC-78",[5],0.51 nM
same,"In vitro cytotoxicity EC50 (nM), IGROV-1",[5],1.14 nM
same,Bmax,[8],21800
same,Bmax (MFI),[9],77000 MFI
same,Kd,[10],2.27 nM
same,Kd,[11],0.67 nM
same,EC50 (read off the curve),[13],~0.7 nM
